For experiment [1], the target named is MABp1-IgG1. The experiment in a line: flow cytometry: S. aureus clinical isolate OOX incubated with unlabeled MABp1 (negative control), then biotinylated recombinant Fcγ receptor 1, then streptavidin-APC. In general terms: A flow cytometer gives signals particle by particle.
Experiment [2] has as its target MABp1-IgG1. The experiment in a line: flow cytometry: S. aureus strain ATCC #25923 incubated with unlabeled MABp1 (negative control), then biotinylated recombinant Fcγ receptor 1, then streptavidin-APC.
Experiment [3] deals with SpA in the cell wall of Staphylococcus aureus (strain ATCC #25923 and clinical isolate OOX) (Staphylococcus aureus) (UniProt P38507). Kind of experiment: flow cytometry: S. aureus strain ATCC #25923 by the legend (sheet prints 25935) pre-incubated with human sera for 15 minutes, then biotinylated MABp1-IgG3 (isotype-matched negative control), then streptavidin-APC.
Experiment [4] has the same target. Kind of experiment: flow cytometry: S. aureus clinical isolate OOX pre-incubated with human sera for 15 minutes, then biotinylated MABp1-IgG3 (isotype-matched negative control), then streptavidin-APC.
The target is the same in experiment [5]. Kind of experiment: flow cytometry: S. aureus strain ATCC #25923 incubated with biotinylated antibody (negative control), then streptavidin-APC.
Experiment [6] shares this target. The experiment in a line: flow cytometry: S. aureus clinical isolate OOX incubated with biotinylated antibody (negative control), then streptavidin-APC.

Among the data in patent publication US20210017257A1 are Mean:FL4-H values, retold here.

MABp1-IgG3 (antibody), sequence (VH): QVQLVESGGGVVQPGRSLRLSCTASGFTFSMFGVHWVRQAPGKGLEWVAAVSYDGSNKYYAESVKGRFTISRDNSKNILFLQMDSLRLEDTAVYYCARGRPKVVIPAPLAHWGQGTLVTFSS
MABp1-IgG3 (antibody), sequence (VL): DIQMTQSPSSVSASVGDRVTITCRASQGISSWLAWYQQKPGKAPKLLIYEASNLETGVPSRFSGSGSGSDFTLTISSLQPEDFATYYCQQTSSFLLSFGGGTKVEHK
biotinylated recombinant Fcγ receptor 1, sequence (P12314 16-292): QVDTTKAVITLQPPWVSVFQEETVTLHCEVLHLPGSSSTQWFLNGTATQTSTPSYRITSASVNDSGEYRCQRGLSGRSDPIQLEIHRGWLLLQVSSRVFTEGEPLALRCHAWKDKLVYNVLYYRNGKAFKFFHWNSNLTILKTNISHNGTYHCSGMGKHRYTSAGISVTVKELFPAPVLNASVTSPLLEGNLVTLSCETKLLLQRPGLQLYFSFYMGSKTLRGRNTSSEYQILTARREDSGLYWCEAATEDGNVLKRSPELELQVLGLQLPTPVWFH

For the substance biotinylated recombinant Fcγ receptor 1, the Mean:FL4-H in the experiment with MABp1-IgG1 [1] turned out to be 18.6; with MABp1-IgG1 [2], 19.8.

In the case of MABp1-IgG3 (antibody), the Mean:FL4-H worked out at 10.3 in experiment [3] and 19.1 in experiment [4].

Take MABp1-IgG1 (antibody): the Mean:FL4-H in experiment [5] was determined as 46.7; in experiment [6] it was 29.8.
